Measurements reported in US20200024358A1 (published 2020).

Columns and labels:
[1] = target: T1, recombinant Human BCMA Fc Chimera (produced in-house via transient expression in HEK293-6E cells) (human, UniProt Q02223 1-54); test: dual-binding ELISA: BCMA Fc coated, then CD3 epsilon His or PD-L1 His, anti-His detection
T1 construct: not shown: Fc part of the chimera
T1 sequence (looked up): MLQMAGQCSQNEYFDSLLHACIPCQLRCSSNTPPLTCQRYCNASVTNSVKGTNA

[2] = target: T2, recombinant human CD3 epsilon His-tag protein (Novoprotein, Cat. No. C578) (human, UniProt P07766 23-126); test: dual-binding ELISA: BCMA Fc coated, then CD3 epsilon His, anti-His detection
T2 construct: Bought protein; not shown: His-tag
T2 sequence (P07766 23-126): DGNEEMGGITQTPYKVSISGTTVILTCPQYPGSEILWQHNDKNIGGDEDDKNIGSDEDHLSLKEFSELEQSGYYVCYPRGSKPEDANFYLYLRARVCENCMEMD

[3] = target: T3, recombinant human PD-L1 His-tag protein (expressed after transient transfection in HEK293-6E) (human, UniProt Q9NZQ7 19-238, limits assumed); test: dual-binding ELISA: BCMA Fc coated, then PD-L1 His, anti-His detection
T3 construct: not shown: His-tag
T3 sequence (Q9NZQ7 19-238 limits assumed): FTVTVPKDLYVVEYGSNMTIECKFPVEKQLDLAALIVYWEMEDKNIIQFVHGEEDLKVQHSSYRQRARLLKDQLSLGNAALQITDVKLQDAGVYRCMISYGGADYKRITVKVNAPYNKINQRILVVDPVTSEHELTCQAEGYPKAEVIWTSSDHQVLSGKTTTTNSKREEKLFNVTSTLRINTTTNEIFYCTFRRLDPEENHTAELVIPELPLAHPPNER

[4] = target: T4, extracellular domain of human PD-L1 (Example 8) (human, UniProt Q9NZQ7 19-238); test: ELISA on coated extracellular domain of human PD-L1, serial dilutions
T4 construct: extracellular domain; also called PD-L1 antigen; immobilized PD-L1
T4 sequence (Q9NZQ7 19-238): as the sequence (Q9NZQ7 19-238 limits assumed) above

B1: CDR1-047 (other)
heavy: QIQLVQSGPELKKPGETVKISCKASGYTFTDYSINWVKRAPGKGLKWMGWINTETREPAYAYDFRGRFAFSLETSASTAYLQINNLKYEDTATYFCALDYSYAMDYWGQGTSVTVSSASTKGPSVFPLAPSSKSTSGGTAALGCLVKDYFPEPVTVSWNSGALTSGVHTFPAVLQSSGLYSLSSVVTVPSSSLGTQTYICNVNHKPSNTKVDKRVEPKSCGGGGSAVVTQEPSLTVSPGGTVTLTCGSSTGAVTTSNYANWVQQKPGKSPRGLIGGTNKRAPGVPARFSGSLLGGKAALTISGAQPEDEADYYCALWYSNHWVFGGGTKLTVLGGGGGSGGGGSGGGGSGGGGSEVQLVESGGGSVQPGGSLRLSCAASGFTFSTYAMNWVRQAPGKGLEWVGRIRSKANNYATYYADSVKGRFTISRDDSKNTLYLQMNSLRAEDTATYYCVRHGNFGDSYVSWFAYWGQGTTVTVSS
light: DIVLTQSPASLAMSLGKRATISCRASESVSVIGAHLIHWYQQKPGQPPKLLIYLASNLETGVPARFSGSGSGTDFTLTIDPVEEDDVAIYSCLQSRIFPRTFGGGTKLEIKRTVAAPSVFIFPPSDEQLKSGTASVVCLLNNFYPREAKVQWKVDNALQSGNSQESVTEQDSKDSTYSLSSTLTLSKADYEKHKVYACEVTHQGLSSPVTKSFNRGECGGGGSEIVMTQSPSTLSASVGDRVIITCQASEDIYSLLAWYQQKPGKAPKLLIYDASDLASGVPSRFSGSGSGAEFTLTISSLQPDDSATYYCQGNYGSSSSSSYGAVFGQGTKLTVLGGGGGSGGGGSGGGGSGGGGSEVQLVESGGGSVQPGGSLRLSCTVSGIDLSSYTMGWVRQAPGKGLEWVGIISSGGRTYYASWAKGRFTISRDTSKNTVYLQMNSLRAEDTATYYCARGRYTGYPYYFALWGQGTTVTVSS
notes: Trispecific Fab-scFv: anti-BCMA Fab, anti-CD3 scFv on the Fd, anti-PD-L1 scFv on the light chain
B1: binds [1]; binds [2]; binds [3].

B2: CDR1-018 (other)
heavy: QIQLVQSGPELKKPGETVKISCKASGYTFTDYSINWVKRAPGKGLKWMGWINTETREPAYAYDFRGRFAFSLETSASTAYLQINNLKYEDTATYFCALDYSYAMDYWGQGTSVTVSSASTKGPSVFPLAPSSKSTSGGTAALGCLVKDYFPEPVTVSWNSGALTSGVHTFPAVLQSSGLYSLSSVVTVPSSSLGTQTYICNVNHKPSNTKVDKRVEPKSCGGGGSEIVMTQSPSTLSASVGDRVIITCQASEDIYSLLAWYQQKPGKAPKLLIYDASDLASGVPSRFSGSGSGAEFTLTISSLQPDDSATYYCQGNYGSSSSSSYGAVFGQGTKLTVLGGGGGSGGGGSGGGGSGGGGSEVQLVESGGGSVQPGGSLRLSCTVSGIDLSSYTMGWVRQAPGKGLEWVGIISSGGRTYYASWAKGRFTISRDTSKNTVYLQMNSLRAEDTATYYCARGRATGYPYYFALWGQGTTVTVSS
light: DIVLTQSPASLAMSLGKRATISCRASESVSVIGAHLIHWYQQKPGQPPKLLIYLASNLETGVPARFSGSGSGTDFTLTIDPVEEDDVAIYSCLQSRIFPRTFGGGTKLEIKRTVAAPSVFIFPPSDEQLKSGTASVVCLLNNFYPREAKVQWKVDNALQSGNSQESVTEQDSKDSTYSLSSTLTLSKADYEKHKVYACEVTHQGLSSPVTKSFNRGECGGGGSAVVTQEPSLTVSPGGTVTLTCGSSTGAVTTSNYANWVQQKPGKSPRGLIGGTNKRAPGVPARFSGSLLGGKAALTISGAQPEDEADYYCALWYSNHWVFGGGTKLTVLGGGGGSGGGGSGGGGSGGGGSEVQLVESGGGSVQPGGSLRLSCAASGFTFSTYAMNWVRQAPGKGLEWVGRIRSKANNYATYYADSVKGRFTISRDDSKNTLYLQMNSLRAEDTATYYCVRHGNFGDSYVSWFAYWGQGTTVTVSS
B2: binds [4].

B3: CDR1-055 (other)
heavy: QIQLVQSGPELKKPGETVKISCKASGYTFTDYSINWVKRAPGKGLKWMGWINTETREPAYAYDFRGRFAFSLETSASTAYLQINNLKYEDTATYFCALDYSYAMDYWGQGTSVTVSSASTKGPSVFPLAPSSKSTSGGTAALGCLVKDYFPEPVTVSWNSGALTSGVHTFPAVLQSSGLYSLSSVVTVPSSSLGTQTYICNVNHKPSNTKVDKRVEPKSCGGGGSQVQLVESGGGLVQPGGSLRLSCAASGKMSSRRCMAWFRQAPGKGLERVAKLLTTSGSTYLADSVKGRFTISRDNSKNTVYLQMNSLRAEDTAVYYCAADSFEDPTCTLVTSSGAFQYWGQGTLVTVSS
light: DIVLTQSPASLAMSLGKRATISCRASESVSVIGAHLIHWYQQKPGQPPKLLIYLASNLETGVPARFSGSGSGTDFTLTIDPVEEDDVAIYSCLQSRIFPRTFGGGTKLEIKRTVAAPSVFIFPPSDEQLKSGTASVVCLLNNFYPREAKVQWKVDNALQSGNSQESVTEQDSKDSTYSLSSTLTLSKADYEKHKVYACEVTHQGLSSPVTKSFNRGECGGGGSAVVTQEPSLTVSPGGTVTLTCGSSTGAVTTSNYANWVQQKPGKSPRGLIGGTNKRAPGVPARFSGSLLGGKAALTISGAQPEDEADYYCALWYSNHWVFGGGTKLTVLGGGGGSGGGGSGGGGSGGGGSEVQLVESGGGSVQPGGSLRLSCAASGFTFSTYAMNWVRQAPGKGLEWVGRIRSKANNYATYYADSVKGRFTISRDDSKNTLYLQMNSLRAEDTATYYCVRHGNFGDSYVSWFAYWGQGTTVTVSS
notes: Trispecific: anti-BCMA Fab, anti-PD-L1 sdAb on the Fd, anti-CD3 scFv on the light chain
B3: binds [1]; binds [2]; binds [3].

B4: CDR1-049 (other)
heavy: EVQLVESGGGSVQPGGSLRLSCTVSGIDLSSYTMGWVRQAPGKGLEWVGIISSGGRTYYASWAKGRFTISRDTSKNTVYLQMNSLRAEDTATYYCARGRYTGYPYYFALWGQGTTVTVSSASTKGPSVFPLAPSSKSTSGGTAALGCLVKDYFPEPVTVSWNSGALTSGVHTFPAVLQSSGLYSLSSVVTVPSSSLGTQTYICNVNHKPSNTKVDKRVEPKSCGGGGSAVVTQEPSLTVSPGGTVTLTCGSSTGAVTTSNYANWVQQKPGKSPRGLIGGTNKRAPGVPARFSGSLLGGKAALTISGAQPEDEADYYCALWYSNHWVFGGGTKLTVLGGGGGSGGGGSGGGGSGGGGSEVQLVESGGGSVQPGGSLRLSCAASGFTFSTYAMNWVRQAPGKGLEWVGRIRSKANNYATYYADSVKGRFTISRDDSKNTLYLQMNSLRAEDTATYYCVRHGNFGDSYVSWFAYWGQGTTVTVSS
light: EIVMTQSPSTLSASVGDRVIITCQASEDIYSLLAWYQQKPGKAPKLLIYDASDLASGVPSRFSGSGSGAEFTLTISSLQPDDSATYYCQGNYGSSSSSSYGAVFGQGTKLTVLGTVAAPSVFIFPPSDEQLKSGTASVVCLLNNFYPREAKVQWKVDNALQSGNSQESVTEQDSKDSTYSLSSTLTLSKADYEKHKVYACEVTHQGLSSPVTKSFNRGECGGGGSDIVLTQSPASLAMSLGKRATISCRASESVSVIGAHLIHWYQQKPGQPPKLLIYLASNLETGVPARFSGSGSGTDFTLTIDPVEEDDVAIYSCLQSRIFPRTFGGGTKLEIKGGGGSGGGGSGGGGSGGGGSQIQLVQSGPELKKPGETVKISCKASGYTFTDYSINWVKRAPGKGLKWMGWINTETREPAYAYDFRGRFAFSLETSASTAYLQINNLKYEDTATYFCALDYSYAMDYWGQGTSVTVSS
notes: Trispecific Fab-scFv: anti-PD-L1 Fab, anti-CD3 scFv on the Fd, anti-BCMA scFv on the light chain
B4: binds [1]; binds [2]; binds [3].

B5: CDR1-056 (other)
chain: AVVTQEPSLTVSPGGTVTLTCGSSTGAVTTSNYANWVQQKPGKSPRGLIGGTNKRAPGVPARFSGSLLGGKAALTISGAQPEDEADYYCALWYSNHWVFGGGTKLTVLGGGGGSGGGGSGGGGSGGGGSEVQLVESGGGSVQPGGSLRLSCAASGFTFSTYAMNWVRQAPGKGLEWVGRIRSKANNYATYYADSVKGRFTISRDDSKNTLYLQMNSLRAEDTATYYCVRHGNFGDSYVSWFAYWGQGTTVTVSSGGGGSQVQLVESGGGLVQPGGSLRLSCAASGKMSSRRCMAWFRQAPGKGLERVAKLLTTSGSTYLADSVKGRFTISRDNSKNTVYLQMNSLRAEDTAVYYCAADSFEDPTCTLVTSSGAFQYWGQGTLVTVSSGGGGSQVQLVESGGGLVQPGGSLRLSCAASGFTLDYYAIGWFRQAPGKEREGVSCISRSDGSTYYADSVKGRFTISRDNAKNTVYLQMNSLKPEDTAVYYCAAAGADCSGYLRDYEFWGQGTLVTVSS
notes: Trispecific tandem scFv-sdAb-sdAb on one chain; also called CDR-056
B5: binds [1]; binds [2]; binds [3].

B6: CDR1-048 (other)
heavy: EVQLVESGGGSVQPGGSLRLSCAASGFTFSTYAMNWVRQAPGKGLEWVGRIRSKANNYATYYADSVKGRFTISRDDSKNTLYLQMNSLRAEDTATYYCVRHGNFGDSYVSWFAYWGQGTTVTVSSASTKGPSVFPLAPSSKSTSGGTAALGCLVKDYFPEPVTVSWNSGALTSGVHTFPAVLQSSGLYSLSSVVTVPSSSLGTQTYICNVNHKPSNTKVDKRVEPKSCGGGGSDIVLTQSPASLAMSLGKRATISCRASESVSVIGAHLIHWYQQKPGQPPKLLIYLASNLETGVPARFSGSGSGTDFTLTIDPVEEDDVAIYSCLQSRIFPRTFGGGTKLEIKGGGGSGGGGSGGGGSGGGGSQIQLVQSGPELKKPGETVKISCKASGYTFTDYSINWVKRAPGKGLKWMGWINTETREPAYAYDFRGRFAFSLETSASTAYLQINNLKYEDTATYFCALDYSYAMDYWGQGTSVTVSS
light: AVVTQEPSLTVSPGGTVTLTCGSSTGAVTTSNYANWVQQKPGKSPRGLIGGTNKRAPGVPARFSGSLLGGKAALTISGAQPEDEADYYCALWYSNHWVFGGGTKLTVLGTVAAPSVFIFPPSDEQLKSGTASVVCLLNNFYPREAKVQWKVDNALQSGNSQESVTEQDSKDSTYSLSSTLTLSKADYEKHKVYACEVTHQGLSSPVTKSFNRGECGGGGSEIVMTQSPSTLSASVGDRVIITCQASEDIYSLLAWYQQKPGKAPKLLIYDASDLASGVPSRFSGSGSGAEFTLTISSLQPDDSATYYCQGNYGSSSSSSYGAVFGQGTKLTVLGGGGGSGGGGSGGGGSGGGGSEVQLVESGGGSVQPGGSLRLSCTVSGIDLSSYTMGWVRQAPGKGLEWVGIISSGGRTYYASWAKGRFTISRDTSKNTVYLQMNSLRAEDTATYYCARGRYTGYPYYFALWGQGTTVTVSS
notes: Trispecific Fab-scFv: anti-CD3 Fab, anti-BCMA scFv on the Fd, anti-PD-L1 scFv on the light chain
B6: binds [1]; binds [2]; binds [3].
